The record followed here is patent publication US20150098945A1 (Daiichi Sankyo, published 2015).

For test [1], the target named is T1, rat ROBO4 (pCI-raROBO4-transfected HEK293 cells) (rat, UniProt Q80W87 38-949 at identity 0.93)).
T1 chain: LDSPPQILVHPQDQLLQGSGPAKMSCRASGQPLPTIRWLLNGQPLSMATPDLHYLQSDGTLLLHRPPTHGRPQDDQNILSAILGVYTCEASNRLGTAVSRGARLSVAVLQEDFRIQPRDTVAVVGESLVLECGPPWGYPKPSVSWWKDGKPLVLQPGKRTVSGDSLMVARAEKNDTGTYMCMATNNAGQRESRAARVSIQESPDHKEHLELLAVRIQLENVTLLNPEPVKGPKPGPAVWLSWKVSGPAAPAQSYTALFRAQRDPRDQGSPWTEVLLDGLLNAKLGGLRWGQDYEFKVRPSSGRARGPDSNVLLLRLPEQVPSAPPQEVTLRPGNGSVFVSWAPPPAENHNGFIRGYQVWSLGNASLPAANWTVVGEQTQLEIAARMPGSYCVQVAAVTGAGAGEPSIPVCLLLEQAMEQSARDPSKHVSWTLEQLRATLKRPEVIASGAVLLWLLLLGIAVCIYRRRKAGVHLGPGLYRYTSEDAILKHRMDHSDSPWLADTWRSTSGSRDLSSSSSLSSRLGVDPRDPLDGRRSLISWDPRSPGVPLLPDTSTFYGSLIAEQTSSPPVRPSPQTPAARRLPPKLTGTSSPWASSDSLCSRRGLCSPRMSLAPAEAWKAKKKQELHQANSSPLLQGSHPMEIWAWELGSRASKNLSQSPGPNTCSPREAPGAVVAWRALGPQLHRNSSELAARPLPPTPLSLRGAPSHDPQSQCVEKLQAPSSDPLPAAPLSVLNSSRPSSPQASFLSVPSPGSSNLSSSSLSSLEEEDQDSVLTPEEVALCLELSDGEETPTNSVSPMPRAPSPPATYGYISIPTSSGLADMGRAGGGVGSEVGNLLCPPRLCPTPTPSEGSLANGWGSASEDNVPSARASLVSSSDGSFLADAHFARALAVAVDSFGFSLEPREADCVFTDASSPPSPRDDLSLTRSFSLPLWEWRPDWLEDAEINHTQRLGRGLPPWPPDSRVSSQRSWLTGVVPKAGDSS
As to the kind of experiment: flow cytometry, HEK293 cells transfected with pCI-raROBO4, anti-mouse IgG FITC; control histogram IgG (Mouse IgG2a). On the procedure:
(§1) HEK293 cells were inoculated at a concentration of 1.5×10⁶ cells/dish to a 60-mm dish (manufactured by Corning Inc.) and cultured overnight in a DMEM medium containing 10% FBS at 37° C. under 5% CO₂ conditions. On the next day, the HEK293 cells were transfected with pCI-hROBO4, pCI-mROBO4, pCI-raROBO4, pCI-FLAG-cynoROBO4-1, pCI-FLAG-cynoROBO4-2, pCI-hROBO1, pCI-hROBO2, or pCI-hROBO3 using FuGENE6 Transfection Reagent and further cultured overnight at 37° C. under 5% CO₂ conditions. On the next day, the expression vector-transfected cells were treated with TrypLE Express (manufactured by Life Technologies Corp.), washed with PBS containing 5% FBS, and then suspended in PBS containing 5% FBS. The obtained cell suspension was used in flow cytometry analysis.
(§2) Each cell suspension prepared in 4)-3-1 was centrifuged, and the supernatant was removed. Then, MAb1 or a negative control Mouse IgG2a was added at a concentration of 10 μg/mL to 2×10⁵ expression vector-transfected cells, and the resulting suspension was left standing at 4° C. for 1 hour. […] Data was analyzed using Flowjo. The histogram of FITC fluorescence intensity was prepared. The antibody was determined to bind in a cross-species manner when the histogram of MAb1 was shifted to a stronger fluorescence intensity region compared with the histogram of the negative control Mouse IgG2a.
(In flow cytometry, cells or beads pass a laser one at a time.)

For test [2], the target named is T2, N-terminal FLAG-tagged cynomolgus monkey ROBO4, cynoROBO4-2 (pCI-FLAG-cynoROBO4-2) (cynomolgus monkey, UniProt Q8WZ75 28-1007 (human entry)).
T2 chain: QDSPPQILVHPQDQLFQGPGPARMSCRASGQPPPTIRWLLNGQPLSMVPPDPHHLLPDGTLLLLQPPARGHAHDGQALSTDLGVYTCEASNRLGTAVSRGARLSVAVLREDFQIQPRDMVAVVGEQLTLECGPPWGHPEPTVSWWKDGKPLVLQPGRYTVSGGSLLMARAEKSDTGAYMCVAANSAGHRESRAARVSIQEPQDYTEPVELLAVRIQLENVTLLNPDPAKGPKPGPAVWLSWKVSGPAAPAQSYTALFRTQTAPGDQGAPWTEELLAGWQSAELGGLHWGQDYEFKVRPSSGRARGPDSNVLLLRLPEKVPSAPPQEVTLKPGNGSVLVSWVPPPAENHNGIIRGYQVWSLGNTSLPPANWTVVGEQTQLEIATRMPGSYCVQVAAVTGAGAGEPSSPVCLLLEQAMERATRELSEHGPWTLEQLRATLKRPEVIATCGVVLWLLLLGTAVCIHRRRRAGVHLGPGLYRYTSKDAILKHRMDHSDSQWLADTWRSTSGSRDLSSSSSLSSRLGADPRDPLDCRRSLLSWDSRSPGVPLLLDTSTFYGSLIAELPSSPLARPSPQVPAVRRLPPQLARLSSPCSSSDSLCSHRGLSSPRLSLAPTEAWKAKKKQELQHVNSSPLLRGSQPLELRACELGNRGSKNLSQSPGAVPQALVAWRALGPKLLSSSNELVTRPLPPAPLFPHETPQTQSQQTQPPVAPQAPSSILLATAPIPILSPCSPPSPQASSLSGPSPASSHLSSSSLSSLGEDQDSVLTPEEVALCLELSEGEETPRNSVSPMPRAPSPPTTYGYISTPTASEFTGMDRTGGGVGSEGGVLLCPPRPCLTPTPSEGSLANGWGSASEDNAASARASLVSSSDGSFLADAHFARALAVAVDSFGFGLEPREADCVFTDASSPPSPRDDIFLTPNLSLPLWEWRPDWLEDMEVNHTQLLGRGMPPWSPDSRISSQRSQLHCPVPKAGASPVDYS
As to the kind of experiment: flow cytometry, HEK293 cells transfected with pCI-FLAG-cynoROBO4-2, antibody at 10 µg/mL, anti-mouse IgG FITC; control histogram IgG (Mouse IgG2a). As for the experimental part: as §1, §2

B1: anti-ROBO4 mouse monoclonal antibody MAb1 (antibody, mouse IgG1, V domains shown)
VH: EVQLVESGGGLVKPGGSLKLSCAASGFTFSTYAMSWVRQTPEKRLEWVATISNGGTYTYYPDSVKGRFTISRDNAENTLYLQMSSLRSEDTAMYFCARLIYYDYLDYWGHGTTLTVSS
VL: DAVMTQTPLSLPVSLGDQASISCRSSQSLENSNGNTYLNWYFQKPGQSPQLLIYRVSNRFSGVLDRFSGSGSGTDFTLKISRVEAEDFGVYFCLQVTHVPWTFGGGTKLEIKR
notes: Mouse IgG1 (gamma1), kappa light chain, purified from hybridoma supernatant; also called parent antibody MAb1
In the case of B1, the binding result in test [1] was “no binding (tested: 10 µg/mL)”; in test [2], “binds”.
